B1: Probable RNA-binding protein EIF1AD (Homo sapiens), Q8N9N8 (parent)
chain: MSQATKRKHVVKEVLGEHIVPSDQQQIVRVLRTPGNNLHEVETAQGQRFLVSMPSKYRKNIWIKRGDFLIVDPIEEGEKVKAEISFVLCKDHVRSLQKEGFWPEAFSEVAEKHNNRNRQTQPELPAEPQLSGEESSSEDDSDLFVNTNRRQYHESEEESEEEEAA
B2: Cyclin-D1-binding protein 1 (Homo sapiens), O95273 (parent)
chain: MASATAPAAAVPTLASPLEQLRHLAEELRLLLPRVRVGEAQETTEEFNREMFWRRLNEAAVTVSREATTLTIVFSQLPLPSPQETQKFCEQVHAAIKAFIAVYYLLPKDQGITLRKLVRGATLDIVDGMAQLMEVLSVTPTQSPENNDLISYNSVWVACQQMPQIPRDNKAAALLMLTKNVDFVKDAHEEMEQAVEECDPYSGLLNDTEENNSDNHNHEDDVLGFPSNQDLYWSEDDQELIIPCLALVRASKACLKKIRMLVAENGKKDQVAQLDDIVDISDEISPSVDDLALSIYPPMCHLTVRINSAKLVSVLKKALEITKASHVTPQPEDSWIPLLINAIDHCMNRIKELTQSELEL
partner: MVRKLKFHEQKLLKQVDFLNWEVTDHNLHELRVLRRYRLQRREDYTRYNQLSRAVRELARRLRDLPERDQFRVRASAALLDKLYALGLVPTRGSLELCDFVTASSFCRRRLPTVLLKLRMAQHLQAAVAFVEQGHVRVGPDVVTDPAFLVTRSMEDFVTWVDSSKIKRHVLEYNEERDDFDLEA
B3: Syntenin-2 (Homo sapiens), Q9H190 (parent)
chain: MSSLYPSLEDLKVDQAIQAQVRASPKMPALPVQATAISPPPVLYPNLAELENYMGLSLSSQEVQESLLQIPEGDSTAVSGPGPGQMVAPVTGYSLGVRRAEIKPGVREIHLCKDERGKTGLRLRKVDQGLFVQLVQANTPASLVGLRFGDQLLQIDGRDCAGWSSHKAHQVVKKASGDKIVVVVRDRPFQRTVTMHKDSMGHVGFVIKKGKIVSLVKGSSAARNGLLTNHYVCEVDGQNVIGLKDKKIMEILATAGNVVTLTIIPSVIYEHMVKKLPPVLLHHTMDHSIPDA
partner: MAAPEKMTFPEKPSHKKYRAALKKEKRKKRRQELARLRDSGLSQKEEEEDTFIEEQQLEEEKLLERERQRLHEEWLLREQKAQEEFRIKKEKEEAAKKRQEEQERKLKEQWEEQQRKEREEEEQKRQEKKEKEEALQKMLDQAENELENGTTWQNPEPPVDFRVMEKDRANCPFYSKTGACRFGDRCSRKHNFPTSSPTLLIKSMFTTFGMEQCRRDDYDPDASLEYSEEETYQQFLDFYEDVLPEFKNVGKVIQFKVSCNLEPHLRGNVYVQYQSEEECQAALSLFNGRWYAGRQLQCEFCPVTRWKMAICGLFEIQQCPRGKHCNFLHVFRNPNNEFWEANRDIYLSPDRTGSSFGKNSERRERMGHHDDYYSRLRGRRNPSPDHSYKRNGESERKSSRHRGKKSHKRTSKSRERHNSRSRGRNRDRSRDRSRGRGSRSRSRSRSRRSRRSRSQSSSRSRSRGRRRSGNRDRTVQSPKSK
B4: Ubiquitin-conjugating enzyme E2 E3 (Homo sapiens), Q969T4 (parent)
chain: MSSDRQRSDDESPSTSSGSSDADQRDPAAPEPEEQEERKPSATQQKKNTKLSSKTTAKLSTSAKRIQKELAEITLDPPPNCSAGPKGDNIYEWRSTILGPPGSVYEGGVFFLDITFSSDYPFKPPKVTFRTRIYHCNINSQGVICLDILKDNWSPALTISKVLLSICSLLTDCNPADPLVGSIATQYLTNRAEHDRIARQWTKRYAT
partner: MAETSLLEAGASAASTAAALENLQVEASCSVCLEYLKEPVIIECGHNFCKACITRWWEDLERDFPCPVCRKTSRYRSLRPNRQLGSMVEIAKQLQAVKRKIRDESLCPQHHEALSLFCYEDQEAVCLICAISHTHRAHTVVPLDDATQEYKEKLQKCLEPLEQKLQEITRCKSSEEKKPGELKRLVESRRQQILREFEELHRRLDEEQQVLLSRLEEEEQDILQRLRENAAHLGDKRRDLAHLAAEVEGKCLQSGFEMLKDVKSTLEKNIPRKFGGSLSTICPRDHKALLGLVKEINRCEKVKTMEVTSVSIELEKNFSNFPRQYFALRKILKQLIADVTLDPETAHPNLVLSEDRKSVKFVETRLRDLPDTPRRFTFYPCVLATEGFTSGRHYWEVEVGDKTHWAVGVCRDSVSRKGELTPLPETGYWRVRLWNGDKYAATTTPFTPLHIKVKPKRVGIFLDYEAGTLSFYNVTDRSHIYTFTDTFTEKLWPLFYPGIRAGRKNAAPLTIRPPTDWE
B5: Cyclin-dependent kinase 2-interacting protein (Homo sapiens), Q9BW66 (parent)
chain: MEAKTLGTVTPRKPVLSVSARKIKDNAADWHNLILKWETLNDAGFTTANNIANLKISLLNKDKIELDSSSPASKENEEKVCLEYNEELEKLCEELQATLDGLTKIQVKMEKLSSTTKGICELENYHYGEESKRPPLFHTWPTTHFYEVSHKLLEMYRKELLLKRTVAKELAHTGDPDLTLSYLSMWLHQPYVESDSRLHLESMLLETGHRAL
partner: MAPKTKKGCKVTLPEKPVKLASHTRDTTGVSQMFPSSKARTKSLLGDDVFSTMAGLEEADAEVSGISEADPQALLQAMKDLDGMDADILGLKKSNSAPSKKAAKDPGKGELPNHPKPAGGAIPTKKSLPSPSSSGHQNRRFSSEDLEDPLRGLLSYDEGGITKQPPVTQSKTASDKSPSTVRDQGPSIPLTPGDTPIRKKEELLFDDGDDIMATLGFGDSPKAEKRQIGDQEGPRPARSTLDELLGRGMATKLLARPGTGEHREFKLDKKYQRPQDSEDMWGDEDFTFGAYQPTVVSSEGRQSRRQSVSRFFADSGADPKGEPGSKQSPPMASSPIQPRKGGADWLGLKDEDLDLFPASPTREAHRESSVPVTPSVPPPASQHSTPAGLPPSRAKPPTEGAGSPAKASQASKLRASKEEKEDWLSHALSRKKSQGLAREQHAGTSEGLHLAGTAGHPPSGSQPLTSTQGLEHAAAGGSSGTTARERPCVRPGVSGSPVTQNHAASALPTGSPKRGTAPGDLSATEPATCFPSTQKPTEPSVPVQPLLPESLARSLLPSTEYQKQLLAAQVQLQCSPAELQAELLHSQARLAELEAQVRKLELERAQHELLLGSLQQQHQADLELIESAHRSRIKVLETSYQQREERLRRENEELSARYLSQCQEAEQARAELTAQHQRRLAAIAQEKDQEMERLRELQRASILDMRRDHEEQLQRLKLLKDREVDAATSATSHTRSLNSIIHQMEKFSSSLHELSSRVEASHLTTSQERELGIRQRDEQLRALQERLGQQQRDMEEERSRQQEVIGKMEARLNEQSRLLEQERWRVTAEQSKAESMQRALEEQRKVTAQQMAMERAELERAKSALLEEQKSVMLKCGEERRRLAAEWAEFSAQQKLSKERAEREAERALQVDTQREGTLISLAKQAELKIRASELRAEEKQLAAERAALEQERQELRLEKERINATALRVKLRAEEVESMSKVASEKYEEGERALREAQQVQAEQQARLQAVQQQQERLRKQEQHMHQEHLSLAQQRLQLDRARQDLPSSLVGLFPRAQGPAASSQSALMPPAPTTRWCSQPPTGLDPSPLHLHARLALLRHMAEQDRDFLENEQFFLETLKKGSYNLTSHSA

Variants of B1 are the subject of one assay. To be noted: with tbcd5_human TBC1D5, Q92609.
Chain of tbcd5_human TBC1D5, Q92609 (Q92609 whole entry): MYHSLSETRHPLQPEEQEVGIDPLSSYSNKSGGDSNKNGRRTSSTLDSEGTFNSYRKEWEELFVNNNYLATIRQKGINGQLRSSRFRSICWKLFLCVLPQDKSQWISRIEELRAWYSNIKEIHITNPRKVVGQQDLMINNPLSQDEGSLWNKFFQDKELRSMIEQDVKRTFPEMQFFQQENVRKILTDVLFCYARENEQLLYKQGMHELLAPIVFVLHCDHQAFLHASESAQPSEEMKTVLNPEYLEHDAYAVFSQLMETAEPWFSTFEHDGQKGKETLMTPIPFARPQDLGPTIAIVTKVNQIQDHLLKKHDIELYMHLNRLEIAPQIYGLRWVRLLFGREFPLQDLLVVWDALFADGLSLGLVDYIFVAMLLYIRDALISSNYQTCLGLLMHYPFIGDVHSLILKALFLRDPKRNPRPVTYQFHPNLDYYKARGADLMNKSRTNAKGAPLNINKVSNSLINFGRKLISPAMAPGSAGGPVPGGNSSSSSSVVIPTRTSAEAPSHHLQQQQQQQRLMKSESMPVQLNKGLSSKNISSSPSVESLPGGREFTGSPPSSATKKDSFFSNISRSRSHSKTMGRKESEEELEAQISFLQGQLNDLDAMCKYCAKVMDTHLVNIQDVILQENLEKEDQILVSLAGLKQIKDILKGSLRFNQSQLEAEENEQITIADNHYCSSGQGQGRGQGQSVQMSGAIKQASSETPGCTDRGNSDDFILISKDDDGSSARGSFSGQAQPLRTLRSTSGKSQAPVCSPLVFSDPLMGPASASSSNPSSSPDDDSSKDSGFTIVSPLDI
In the case of MSQATKRKHVVKEVLGEHIVPSDQQQIVRVLRTPGNNLHEVETAQGQCFLVSMPSKYRKNIWIKRGDFLIVDPIEEGEKVKAEISFVLCKDHVRSLQKEGFWPEAFSEVAEKHNNRNRQTQPELPAEPQLSGEESSSEDDSDLFVNTNRRQYHESEEESEEEEAA [R48C], the “effect of a mutation on the interaction” value is given as “with no effect”.

The next assay covers variants of B2. To be noted: with imp3_human IMP3, Q9NV31.
As to MASATAPAAAVPTLASPLEQLRHLAEELRLLLPRVRVGEAQETTEEFNREMFWRRLNEAAVTVSREATTLTIVFSQLPLPSPQETQKFCEQVHAAIKAFIAVYYLLPKDQGITLRKLVRGATLDIVDGMAQLMEVLSVTPTQSPENNDLISYNSVWVACQQMPQIPRDNKAAALLMLTKNVDFVKDAHEEMEQAVEECDPYSGLLNDTEENNSDNHNHEDDVLGFPSNQDLYWSEDDQELIIPCLALVRASKACLKKIRMLVAENGKKDQVAQLDDTVDISDEISPSVDDLALSIYPPMCHLTVRINSAKLVSVLKKALEITKASHVTPQPEDSWIPLLINAIDHCMNRIKELTQSELEL [I277T], the “effect of a mutation on the interaction” value was “disrupting interaction strength”.

Variants of B3 are the subject of the next assay. As to conditions: with ZRSR2, Q15696.
Consider MSSLYPSLEDLKVDQAIQAQVRASPKMPALPVQATAISPPPVLYPNLAELENYMGLSLSSQEVQESLLQIPEGDSTAVSGPGPGQMVAPVTGYSLGVRRAEIKPGVREIHLCKDERGKTGLRLRKVDQGLFVQLVQANTPASLVGLRFGDQLLQIDGRDCAGWSSHKAHQVVKKASGDKIVVVVRDRPFQRTVTMHKDSMGHVGFVIKKGKIVSLVKGSSAARNGLLTNHYVCEVDGQNVIRLKDKKIMEILATAGNVVTLTIIPSVIYEHMVKKLPPVLLHHTMDHSIPDA [G242R], for which the “effect of a mutation on the interaction” value is reported as “disrupting interaction strength”.

The next assay covers variants of B4. To be noted: with tri39_human TRIM39, Q9HCM9.
On to S117T, for which the “effect of a mutation on the interaction” value is “with no effect”.

In a further assay the parent is B5. As to conditions: with fbf1_human FBF1, Q8TES7.
With MEAKTLGTVTPRKPVLSVSARKIKDNAADWHNLILKWETLNDAGFTTANNIANLKISLLNKDKIELDSSSPASKENEEKVCLEYNEELEKLCEELQATLDGLTKIQVKMEKLSSTTKGICELENYHYGEESKRPPLFHTWPTTHFYEVSHKLLEMYRKELLLKHTVAKELAHTGDPDLTLSYLSMWLHQPYVESDSRLHLESMLLETGHRAL [R164H], the “effect of a mutation on the interaction” value is “with no effect”.

The next assay covers variants of B5. As to conditions: with fbf1_human FBF1, Q8TES7. The source holds these as a separate data set.
On to MEAKTLGTVTPRKPVLSVSARKIKDNAADWHNLILKWETLNDAGFTTANNIANLKISLLNKDKIELDSSSPASKENEEKVCLEYNEELEKLCEELQATLDGLTKIQVKMEKLSSTTKGICELENYHYGEESKRPPLFHTWPTTHFYEVSHKLLEMYRKELLLKRTVAKELAHTGDPNLTLSYLSMWLHQPYVESDSRLHLESMLLETGHRAL [D177N], for which the “effect of a mutation on the interaction” value is recorded as “with no effect”.
